Reference: patent US20240400698A1, “ANTI-CHEMOKIN LIKE RECEPTOR 1 ANTIBODIES AND THEIR THERAPEUTIC APPLICATIONS” (OSE IMMUNOTHERAPEUTICS, priority 2018, published 2024)

How the values were obtained:
MC38 cells = experiment: MC38 colon carcinoma model; format: in vivo, mice; settings: FIG. 9D, 20 μg/injection i.p. for 3 weeks, vs isotype control
Method: FIG. 9. […] Two mice models were studied, and animals received isotype control antibody (3G8) (x) or anti-CMKLR1 (2G1) ( ) at 20 μg/injection intraperitoneally for 3 weeks. A-C. Results in the CT26 colon carcinoma model comparing single treatment with p84 (A) and 2G1 (B) with combined therapy with both antibodies (C). D: Results in the MC38 colon carcinoma model.
8-week old C57bl/6J male mice were anesthetized with 3% of isoflurane. Mice were shaved on the flank and MC38 cells (0.5·10^6 cells/mouse) cell lines were injected subcutaneously with an insulinic syringe (30 Gauges) in 50 μL of PBS. Another model was used, in which 8-week old Balb/c male mice were anesthetized with 3% of isoflurane. Mice were shaved on the flank and CT26 cells (1·10^6 cells/mouse) were injected subcutaneously with an insulinic syringe (30 Gauges) in 50 μL of PBS.
The agonistic anti-CMKLR1 antibody (2G1) or an anti-SIRPa antibody (p84-anti-mouse SIRPa from Merck Millipore) (SIRPa is a new checkpoint inhibitor) were injected once a week (20 μg/injection) intraperitoneally for 3 weeks starting at d4 after tumor inoculation alone or combined.

[1] = system: Akt and Erk proteins (CMKLR1 pathway); experiment: Western blot of Akt and Erk phosphorylation in mice M1 macrophages; format: cell-based; settings: FIG. 18; mice M1, 2 μg/mL, after 10 to 30 minutes of incubation
Method: FIG. 18. Study of the CMKLR1 pathway activation: Akt and Erk phosphorylation. Western blot analysis of the ERK and AKT activation pathway after 5, 10 and 30 minutes of mice M1 cell incubation with 2G1 or RvE1. The Phosphorylated protein Akt or Erk were assessed using P-Akt antibody or P-Erk antibody (p44/42). A. Erk and Akt activation with RvE1. B. Erk and Akt activation with 2G1.
Mice pro-inflammatory macrophages (M1) were generated from bone marrow with M-CSF and polarized with IFN-gamma (IFNg) and LPS. Briefly, bone marrow cells were collected by flushing the femoral bone and cultured with 100 ng/mL of mM-CSF for 5 days and then polarized with 20 ng/ml of IFNg and 100 ng/mL of LPS for 24 h. Then, they were deprived of FBS for 24 hours with RPMI FBS 2% medium. Finally, mice M1 were treated with 2 μg/mL of 2G1 antibody at different times: 5, 10 and 30 minutes. Cells were collected in a RIPA buffer. The protein concentration was measured by a BCA protein kit assay. Proteins were denatured by heating at 95° C. for 5 minutes and diluted in DTT and Laemmli solution. After migration and transfer, the nitrocellulose membrane was blocked with 5% BSA in TBS-T for 2 hours. […] Western blot Images were quantified by Multi Gauge software

4T1 cells = experiment: Orthotopic 4T1 mammary carcinoma model, primary tumor and metastasis; format: in vivo, mice
Method: FIG. 8. […] Mice were inoculated with 4T1 cells (0.25 millions) in the mammary gland. […] A. The tumor area was measured 8 days after tumor injection and then every 2 days. B. Tumor lung metastasis was measured by Bioluminescence imaging (BLI) in animals treated with isotype control and anti-CMKLR1 antibody (n=4).
Mice were anesthetized with 3% of isoflurane. Mice were shaved on the abdomen and 4T1 cells (0.25 millions) were injected in the mammary gland with an insulinic syringe (30 Gauges) in 50 μL of PBS. […] In a second study to measure the lung metastasis following mammary carcinoma development, animals were treated with anti-CMKLR1 antibody at 0.8 mg/kg or control antibody (100 μg/injection) three times a week for three weeks.

CMKLR1 receptor = biological target: T1, CMKLR1 receptor (Homo sapiens, UniProt Q99788); experiment: Competition with Chemerin in cAMP production by CMKLR1 receptor, CHO-K1 CMKLR1 Gi cells; format: cell-based; settings: FIG. 20A; antibody 1 μM to 1 nM, chemerin 2 nM
T1 construct: host or cells: CHO-K1
T1 sequence (Q99788 1-373): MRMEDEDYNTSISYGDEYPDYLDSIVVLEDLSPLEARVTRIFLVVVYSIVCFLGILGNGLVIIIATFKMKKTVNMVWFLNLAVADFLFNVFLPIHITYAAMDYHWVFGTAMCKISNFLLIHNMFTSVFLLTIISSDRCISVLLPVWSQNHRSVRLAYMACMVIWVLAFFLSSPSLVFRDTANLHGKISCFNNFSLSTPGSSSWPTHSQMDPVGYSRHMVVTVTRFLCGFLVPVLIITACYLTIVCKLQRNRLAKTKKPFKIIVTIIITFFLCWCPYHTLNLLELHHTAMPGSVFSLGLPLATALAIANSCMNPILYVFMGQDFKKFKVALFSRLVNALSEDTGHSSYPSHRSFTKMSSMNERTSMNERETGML
Method: The day before the experiment CHO-K1 CMKLR1 Gi cells (Discover'X ref 95-0080C2) were plated in pre-warmed cell reagent then plated in a 96-well plate at 100 μl/well of cells as (Discover'X ref 15-103) and incubated 24 hours at 37° C., in a 5% CO2 humidified incubator for 24 hours.
For the detection CAMP, antibody reagent and cAMP working detection solution was added to the plate for 1 hour at room temperature, then CAMP solution A was added, and cells incubated 3 hours at room temperature in the dark. Bioluminescence was read with a plate reader with 0.5 s integration.

[2] = system: NOD female mice, spontaneous type 1 diabetes; experiment: Type 1 diabetes NOD model; format: in vivo; settings: 20 μg/injection i.p. three times a week for 2 weeks
From the text: FIG. 5. […] Mice develop spontaneous diabetes. […] A. Percentage of survival, B. individual representation of blood glucose concentration in mg/dL. C. pooled representation of blood glucose concentration in mg/dL.
8 weeks-old NOD female mice were obtained from Charles River laboratory. These mice develop a spontaneous type 1 diabetes at age between 12 to 20 weeks. The diabetes initiation can be measured by the high glycaemia.

[3] = biological target: T2, CMKLR1 EL3 loop (SEQ ID No: 18) (Homo sapiens, UniProt Q99788); experiment: ELISA binding on CMKLR1 peptide; settings: OD at 450 nm, FIG. 12, vs isotype control
T2 sequence (Q99788 275-307 limits assumed): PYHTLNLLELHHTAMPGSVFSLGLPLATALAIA
Method: FIG. 12. Binding analysis of the anti-CMKLR1 antibody on a CMKLR1 peptide by ELISA. The binding of the 2G1 antibody ( ) on the CMKLR1 EL3 loop (SEQ ID No: 18) was compared to the isotype control antibody (3G8) (x) by measuring the OD at 450 nm by ELISA.
CMKLR1 peptide (273NH2-[…]-COOH305) (SEQ ID No: 18) (5 μg/ml) was coated in borate buffer overnight. Saturation was performed with PBS-Tween 0.1%-Gelatin 0.25% for 2 hours at 37° C. Then, 2G1 or hIgG1 antibodies were added at different concentrations for 2 hours at 37° C. […] The colorimetric reaction was read with TECAN.

B1: 2G1: chimeric anti-CMKLR1 antibody, murine variable regions (SEQ ID No: 10 and 17), human IgG1 constant regions; VH-CDR3 variant LI (antibody, V domains shown)
VH: METDTLLLWVLLLWVPGSTGDEVQLVASGGGLVQPGGSLKLSCAASGFTFSSYGMSWVRQTPDRRLELVATINRYGGSTYYPDSVKGRFTISRDNAKNTLYLQMSSLKSEDTAMYYCPRLIYYGNEGDSWGQGTTLTVSS
VL: METDTLLLWVLLLWVPGSTGDQIVLTQSPAIMSASPGEKVTMTCSASSSVSFMHWYQQKSGTSPKRWIYDTTKLTSGVPARFSGSGSGTFYSLTISSMEAEDAATYYCQQWNSKPPLTFGPGTKLELKR
modifications: human IgG1 constant regions
notes: VH-CDR3 variant LI
With B1 the tumor growth (MC38 cells) was “did show an efficacy in the inhibition of the tumor growth”, the “activation (phosphorylation) of Akt protein” value [1] was “able to induce the activation” and the “activation (phosphorylation) of Erk protein” value [1] was “able to induce the activation”. The “tumor growth (tumor area)” value (4T1 cells; 4T1 mammary carcinoma, FIG. 8A, 10 μg/injection at day 4 and day 7, vs isotype control) was “did not show any improvement in the tumor growth”, the “lung metastasis by bioluminescence imaging” value (4T1 cells; 4T1 model, FIG. 8B, 0.8 mg/kg three times a week for three weeks, vs control antibody) was “reduces the lung metastasis” and the lymph node metastasis (4T1 cells; 4T1 model, data not shown, two animals in the control have metastasis) was “no animals treated with the anti-CMKLR1 compound has metastasis”. The “reversal of Chemerin-induced inhibition of forskolin-dependent cAMP production” value (CMKLR1 receptor) was “could not revert this inhibition of production”, the survival percentage ([2]; FIG. 5A) was “better survival percentage” and the “glycaemia (blood glucose concentration)” value ([2]; FIG. 5B-C) was “almost normal glycaemia”. For the same molecule, the “binding to the polypeptide forming the loop EL3 of CMKLR1” value [3] was “able to bind the polypeptide forming the loop EL3 of CMKLR1”.
